Test results: the DeepSol protein solubility set

Test: soluble on expression in E. coli; label from the status in PepcDB or PDB records

Q: For “MGIKTQKNFICLKRTFSMNLRDAISVANPVQLEEEIKHDEVVSFLKSKNLLDKPVILNVEGKKVAKNFVSSRETLGKYLGVDAYSIARELSKIEDREAEIRVEPFSSLAMKKVDVNLQELPVIKYFPRDGGRYITAGIVIAQRNGVYNASIHRMLLLDESRVAARLVPPRHTYLMWREAVEREEELEVAVVIGTHPLFLFASATRVPSGKEFSYAAGLMGRLTLYRKGEMLVPDSEIILFGRITAETAKEGPFVDITGTYDIVRDEPVIVFDEMYVKEDYIYYSITPAGKEHQMLMGVPYEPVIYRFVSNVCKVKNVITTPGSCHYFHCVVQIEKKSEGDGKNAIIAALAANPSMKGVVVVDDDIDILSYEDMEFAIATRFQPDRDLVVVKGARGSSLDPSADKTTSKWGIDATKPLGKEGFDRVVLEHHHHHH”, which “soluble on expression in E. coli” value is on record?
A: Its value is “not soluble”.

Q: With “MGIPILKLGECLLISIQSELDDHTAVEFQEDLLAKIHETSARGVVIDITSIDFIDSFIAKILGDVVSMSKLMGAKVVVTGIQPAVAITLIELGITFSGVLSAMDLESGLEKLKQELGE” as the sequence, how does the “soluble on expression in E. coli” value read?
A: Its value is “not soluble”.

Q: For “MGIRPVNRKRLSMDKVFIEQLEVITTIGVYDWEQQIKQKLVLDLEMAHDNRAAGKSDDVADALDYAQVSQAVLEHIEQGRFLLVERVAEEVAELIMTRFAVPWLRIRLTKPGAVPQAKGVGVIIERARG”, which “soluble on expression in E. coli” value is on record?
A: Its value is “not soluble”.

Q: Which “soluble on expression in E. coli” value does the source give for “MGKDSKKHKKERRRERSPSTSDSDEERLQKRLAEQRSLKKDEKRRQKEEMKKNESAEEKRARRMEKKMRKDAKRKDADAEDTLIPPELNYTNLNNPFNDTKLTQTFVWGKKLEREGKSGLTQDEITKQTSQRIRKNLHEAAEFKRIRDSRAAAKEDMEMMKRDADLRAGQISDTKEREFQMDQIKERTRIRIDQGRAKAIDLLSRYARFADENPHTAKIPDFELENPMEYLKASCKSVDDYEDLIEDIKTYREVDGWAKNETWWMDVTRIAEDEIQKKAAQNRGDVHASVQTEVQNMFKNKSIDELLKLEDQMDAKIRGNSGNKGYWQDLDDQLKVFIARKRLREHHGRVLRLQLAIIKEEQKKEIQQQESEELLPVAEVPPQVKIQKEEEEEEEEDEDDEKISKKVRRKIDVQTLDDPELDEPERERKWRALTGDQLDDVTRELYRIGCYRFSIFFLAEKPPTYISADDTMPGIEILDEQADVDNLTERRNRNRGTLPSSSAASSGAPQGASSKMMAIAREGMEADESIFGAEEQLAAQRHLWSDKYRPRKPTYLNRVQTGFDWNKYNQTHYDQDNPPPKIVQGYKFNIFYPDLLDMTVAPRFGLTSCEDPDFAIIRFKAGPPYEDIAFKVVNREWETLHKNGYKCQFQNGVFQLWFMFKKYRYRR” here?
A: Its value is “soluble”.

Q: For “MGKGDPNKPRGKMSSYAFFVQTCREEHKKKHPDSSVNFAEFSKKCSERWKTMSAKEKSKFEDLAKSDKARYDREMKNYVPPKGDKKGKKKDPNAPKRPPSAFFLFCSEHRPKIKSEHPGLSIGDTAKKLGEMWSEQSAKDKQPYEQKAAKLKEKYEKDIAAYRAKGKSEVGKKGPGRPTGSKKKNEPEDEEEEEEEEDDEDEEEEDEDEE”, which “soluble on expression in E. coli” value is on record?
A: Its value is “soluble”.

Q: With “MGKIQARIPDEVQEVASAVIKSTGLTVSDAVRMFMTRIARDRALPLDLFQPNLETLQAIEDAEMGRVERTSLDGLRAMIRDDKAEVCKSAK” as the sequence, how does the “soluble on expression in E. coli” value read?
A: Its value is “not soluble”.

Q: Which “soluble on expression in E. coli” value does the source give for “MGKKKFIENEDGTTEVQETESEAPKDKKEKKEYRLRTLGANIKTSKKSFKEQFFMNYEDGLKLIKKMRGKGKGGQLVQKVMPRHISLPYHMSGKAAMEEACDWIAQNTVGKYRKEYKGIVVAVGSVDLASAPRVISDQYAFHTDVAINQIVFIPKIGDQYEAKVKYVQEGLMVGVVMDMITIHIKQNDKTSEDQVAIDDKILVKYSGIRIKSSLCHLKGEYVKMIEKAEIKEEEEVEDEADEETDVKEKVKEEEDEDEDMEE” here?
A: Its value is “not soluble”.

Q: With “MGKKKNKKTEVQQPDPMRKNWIMENMDSGVIYLLESWLKAKSQETGKEISDIFANAVEFNIVLKDWGKEKLEETNTEYQNQQRKLRKTYIEYYDREMK” as the sequence, how does the “soluble on expression in E. coli” value read?
A: Its value is “soluble”.

Q: With “MGKKKVKFLQKEELRTLLQSLDLQSGINNDWFLLLIAKTGMRYAEALALTPSDFDWVNATVTIDKSWDYKTHRGFKKTKSTASDREIAIDWQIVGQFKPLIQDLPANDPIFIEKTERGTYKKQYNSTMNNYLEAKCKTLTITVISLHALRHTHASVLLAEGVSIHTISARLGHADVGVTQEIYAHVLDELQKKDDQKMMSVLMQIALEHHHHHH” as the sequence, how does the “soluble on expression in E. coli” value read?
A: Its value is “not soluble”.

Q: For “MGKKRKITDEKDAQHVPAEKREKVENWLKKSTEKPTSSQSDAEKKKKRPWRNKVRKLAAKKAAADKKSENPEEPPLILEPKSSSDENTKKKRKRGPKKKKFKPEVAGKAAETENDDVAAAPEEADPIAEAKKRLDAGRFRFLNEKLYTCTGSEAFDFFKEDPTAFDLYHKGFADQVKKWPNHPLREIIRWLQSKPDQQSVFDLGCGEAKIAEAVGEKHKIRSFDLVAVNDRVESCDMSKLPAEDSSADIVIYCLSLMGTNLYDFIREARRVLKIGGILKIAEVTSRFVSIKQFCEAITKMGFEQSHRRELTDYFMMMEFKKVEKVEQKRPYGLKLKPCLYKKR”, which “soluble on expression in E. coli” value is on record?
A: Its value is “soluble”.

Q: Which “soluble on expression in E. coli” value does the source give for “MGKKVVVIGAGPGGIMAAGKAAERGHNVTLFEKNDRIGKKILISGKGRCNITNNTDIEGLIENIPGNGNFLYSAFYTFSNHDLIEFFEQYGLKTKVERGGRVFPVSDDAKDVNNALLKFLNKAKVNLRLNSPVQEIKAKNNTVTGVVLKDGTEVPCDAVVLATGGASYPGTGSTGDGYVMAKKLGHTIVDLKPSLVPLLAEEEWVKELQGLSLKNVSITILSKAGKKIYTDFGEMLFTHFGVSGPIILSASRHILDYDYKNVKLVIDLKPALSEEKLDERILRDFEKYSRKQYKNSLDDLLPKKMIPVIVKLSGIEPEKFVNQIKKEERRALVRLLKNLTLNINGSRPIKEAIVTAGGVSTDEINPSTMESKLVKGLYFAGEIIDVDGYTGGFNLTIAFSTGYLAGVSC” here?
A: The value was “soluble”.

Q: Which “soluble on expression in E. coli” value does the source give for “MGKNKTAYVCQECGYKSVKWLGKCPSCGEWNTLVEEFEPQSFSLVKKEPSLVLPVTDWEKEEHERETTGFESLDNALGGGLVKGQVILIAGEPGIGKSTLLLQISDRVANGKKVLYVSGEESGTQIALRAKRLGINNENLLVYPEVNLEKILQTLEKEKPSLLVLDSVQTIFSERLESSAGSVSQVREVTYRITEFCKEKNVPAFIVGQITKEGSIAGPKVLEHIVDTVLQFEGERFNFYRIVKVIKNRFGSTGEIAVFKMTDKGLEEVPEPSAFFISEKANAPGSVVFPHTEGSKPVLLEVQALVIPALYTTPQRRTQGFDPNRLALILAVLEKEAKIFTRDQDVFVNVAGGMSVKEPAADLAVAMAVVSSKKEKEVPKDFVIFGEVGLSGEIRAVHFGDLRLKEAKRFGFKKALIPKSLEIEIDGMEIYPVSHIQEAIEVLF” here?
A: Its value is “soluble”.

Q: For “MGKQLAKKITWAIENFSSLHSKKIYSDPFIVGGCKWRFLVYPKGNNVDYLFLYLEVADYESLSPEWRRHARYLLNVVNQNSVKRSKQNEEQKWFDVQSPRWGRLSMFPLNEINAKDSGFLVNGELKIVAEIEVLEVIGKLDVSEETSTIMESMDFNGFQLLPSQVDFVRHMFEKHPEIASEFRLKNPNLRAGYMSLLLSLIETLRQSPQELNKVDLAEGYVALRSITDAGFKVDWLEKKLVEISEKKNKEEAGETRMQEINEELESLKQKCLDLEAQLEKEKAEVFAAKSPLSFNDVF”, which “soluble on expression in E. coli” value is on record?
A: Its value is “not soluble”.

Q: With “MGKQRECLVIVEGYDPYVVKVSHDATSYSDYKTGRELPFTIIRMNGFSDSEGVYCCIASDKSMEDHTDEARALLKAYKVKPL” as the sequence, how does the “soluble on expression in E. coli” value read?
A: The value was “not soluble”.

Q: For “MGKSDFLSPKAIANRIKSKGLQKLRWYCQMCQKQCRDENGFKCHCMSESHQRQLLLASENPQQFMDYFSEEFRNDFLELLRRRFGTKRVHNNIVYNEYISHREHIHMNATQWETLTDFTKWLGREGLCKVDETPKGWYIQYIDRDPETIRRQLELEKKKKQDLDDEEKTAKFIEEQVRRGLEGKEQETPVFTELS”, which “soluble on expression in E. coli” value is on record?
A: Its value is “soluble”.

Q: Which “soluble on expression in E. coli” value does the source give for “MGKSIPVKTGLRGASAAVAGFIKSSKPIRPISSMDSSDKDSSSTTTTSETTRRFVPLSSVVSDCAKRWFKDTLEEAKAGNITMQVLLGQMYYSGYGVPKDARKVSSLFPPFQSLLFQVLGYNASDSDSESD” here?
A: Its value is “not soluble”.
